Test results taken from IntAct's records for PubMed 24464040.

Experiments:
kap3_rat Prkar2b [1] = biological target: kap3_rat Prkar2b (UniProt P12369)
kap3_rat Prkar2b [2] = biological target: kap3_rat Prkar2b (UniProt P12369); remark: listed apart in the source

Sequence of kap3_rat Prkar2b (P12369 whole entry): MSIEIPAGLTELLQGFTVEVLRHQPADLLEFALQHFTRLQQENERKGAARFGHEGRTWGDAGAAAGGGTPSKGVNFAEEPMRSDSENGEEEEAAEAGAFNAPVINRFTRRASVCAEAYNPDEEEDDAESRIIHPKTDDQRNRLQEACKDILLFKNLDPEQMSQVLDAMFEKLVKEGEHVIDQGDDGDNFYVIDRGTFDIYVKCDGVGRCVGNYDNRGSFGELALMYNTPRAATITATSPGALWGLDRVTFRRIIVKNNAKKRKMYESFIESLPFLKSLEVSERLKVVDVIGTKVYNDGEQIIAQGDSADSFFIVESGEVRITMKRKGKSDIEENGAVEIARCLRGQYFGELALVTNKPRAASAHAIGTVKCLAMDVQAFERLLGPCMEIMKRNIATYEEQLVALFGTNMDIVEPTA

effect of a mutation on the interaction (kap3_rat Prkar2b [1])	effect of a mutation on the interaction (kap3_rat Prkar2b [2])	Substance
increasing interaction		Leucine-rich repeat serine/threonine-protein kinase 2 (Homo sapiens), Q5S007 G2385R
	decreasing interaction	Leucine-rich repeat serine/threonine-protein kinase 2 (Homo sapiens), Q5S007 R1441C
